Measured values reported in patent US20080261871A1, “Y2/Y4 Selective Receptor Agonists for Therapeutic Interventions” (priority 2004, published 2008).
No end group written: not given here.

T1: human Y2 receptor (human, UniProt P49146 1-381)
T1 sequence (looked up): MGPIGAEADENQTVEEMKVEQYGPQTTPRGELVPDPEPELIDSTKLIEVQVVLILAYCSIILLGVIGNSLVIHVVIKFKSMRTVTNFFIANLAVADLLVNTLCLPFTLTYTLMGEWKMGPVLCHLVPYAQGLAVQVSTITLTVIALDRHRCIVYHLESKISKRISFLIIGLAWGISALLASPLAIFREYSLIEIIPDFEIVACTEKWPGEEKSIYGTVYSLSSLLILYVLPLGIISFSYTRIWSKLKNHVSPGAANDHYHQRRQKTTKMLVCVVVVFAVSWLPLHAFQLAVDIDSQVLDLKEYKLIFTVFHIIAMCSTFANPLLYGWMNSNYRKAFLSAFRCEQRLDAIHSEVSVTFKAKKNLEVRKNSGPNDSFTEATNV

T2: human Y1 receptor (human, UniProt P25929 1-384)
T2 sequence (looked up): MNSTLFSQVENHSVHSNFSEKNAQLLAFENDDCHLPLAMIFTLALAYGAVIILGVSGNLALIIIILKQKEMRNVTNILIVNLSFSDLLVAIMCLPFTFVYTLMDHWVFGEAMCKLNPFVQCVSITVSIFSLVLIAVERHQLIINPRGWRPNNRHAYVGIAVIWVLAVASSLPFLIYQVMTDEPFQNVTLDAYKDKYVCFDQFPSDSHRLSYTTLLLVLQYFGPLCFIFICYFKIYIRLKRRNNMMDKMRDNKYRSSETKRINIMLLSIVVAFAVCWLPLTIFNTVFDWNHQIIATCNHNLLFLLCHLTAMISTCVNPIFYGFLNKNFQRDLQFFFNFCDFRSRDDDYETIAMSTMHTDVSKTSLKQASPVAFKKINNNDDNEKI


What was measured:
[1] = in vivo; details: dog, iv, 100 ug/kg
Protocol: (§1) At the highest dose a plasma levels of 100 nM was obtained in the dogs.

[2] = test system: anesthetized dogs; assay: in vivo; details: dog, iv
Protocol: as §1

[3] = test system: mice; assay: Acute food intake in mice after subcutaneous injection; assay type: in vivo; details: mice fasted 16 hours, sc
Protocol: Food and water were available ad libitum except just before experiments (see below). The mice were acclimatized to subcutaneous injections during the week before experiments started. Mice were used once each in the experiments. Just before administration the peptides were diluted in physiological saline and administered in 100 μL volume for subcutaneous administration. Results are expressed as mean +/−SE. Analysis of variance followed by Bonferroni's test were used to assess differences among groups.
A standard diet was used (CLEA Japan, Inc., Tokyo, Japan) and food intake was measured by subtracting uneaten food from the initially premeasured food after administration and checking for food spillage.

[4] = in vivo; design: species or system cyno monkeys; details: cynomolgus monkey
Source text: […]. […] […]. Apparently, the Y4 receptor activation—conceivably in the area postreama-prevents the emetic effect of the Y2 activation form the same compound. This property of a combined Y2-Y4 selective agonist is of great benefit for the treatment of obesity and associated conditions.

[5] = biological target: T1, human Y2 receptor; assay: cell-based or functional assay
[6] = biological target: human Y4 receptor (human, UniProt P50391 1-375); assay: cell-based or functional assay
[7] = biological target: T2, human Y1 receptor; assay: cell-based or functional assay

Sequence of human Y4 receptor (P50391 whole entry): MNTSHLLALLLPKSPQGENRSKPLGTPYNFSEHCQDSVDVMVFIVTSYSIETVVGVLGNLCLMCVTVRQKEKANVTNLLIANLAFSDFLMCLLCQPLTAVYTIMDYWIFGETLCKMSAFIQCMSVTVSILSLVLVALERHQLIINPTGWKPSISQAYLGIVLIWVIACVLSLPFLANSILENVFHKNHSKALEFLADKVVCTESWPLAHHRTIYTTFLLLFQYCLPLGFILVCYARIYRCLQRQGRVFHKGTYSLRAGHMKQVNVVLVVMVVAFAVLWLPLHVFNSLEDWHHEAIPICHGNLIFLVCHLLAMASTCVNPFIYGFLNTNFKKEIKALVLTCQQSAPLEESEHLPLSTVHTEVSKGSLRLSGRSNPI

Molecule | level at time molar [1] [µM] | plasma level dose relationship [2] | duration of inhibition of food intake ([3]; 1 μg per animal) | inhibitory effect on food intake compared with PYY3-36 ([3]; 1 and 10 μg per animal) | level at time molar [4] [µM] | EC50, inositol phosphate turnover [5] [nM] | EC50, inositol phosphate turnover [6] [nM] | EC50, inositol phosphate turnover [7] [nM]
CC[C@H](C)[C@H](NC(=O)[C@H](Cc1ccc(O)cc1)NC(=O)[C@H](CCCNC(=N)N)NC(=O)[C@H](CCCNC(=N)N)NC(=O)[C@H](CC(C)C)NC(=O)[C@H](CC(=O)O)NC(=O)[C@H](C)NC(=O)[C@H](C)NC(=O)[C@H](Cc1ccc(O)cc1)NC(=O)[C@H](CCC(N)=O)NC(=O)[C@H](C)NC(=O)[C@H](CCSC)NC(=O)[C@H](CCC(N)=O)NC(=O)[C@H](CCC(=O)O)NC(=O)[C@@H]1CCCN1C(=O)[C@@H](NC(=O)[C@H](C)NC(=O)[C@H](CC(N)=O)NC(=O)[C@H](CC(=O)O)NC(=O)CNC(=O)[C@@H]1CCCN1C(=O)[C@H](Cc1ccc(O)cc1)NC(=O)[C@@H](NC(=O)[C@@H]1CCCN1C(=O)[C@H](CCC(=O)O)NC(=O)[C@H](CC(C)C)NC(=O)[C@@H]1CCCN1C(=O)[C@H](C)N)C(C)C)[C@@H](C)O)C(=O)N[C@@H](CC(N)=O)C(=O)N[C@@H](CCSC)C(=O)N[C@@H](CC(C)C)C(=O)N[C@H](C(=O)N[C@@H](CCCNC(=N)N)C(=O)N[C@@H](CCC(N)=O)C(=O)N[C@@H](CCCNC(=N)N)C(=O)N[C@@H](Cc1ccc(O)cc1)C(N)=O)[C@@H](C)O [[Gln34]PP] | 0.1 | linear dose relationship | more than 8 hours | more pronounced and long-lasting inhibitory effect | 0.012 to 0.013 |  |  | 
APLEPVYPGDNATPEQMAQYAADLRHYINMLTRQRY-NH2 [[His26,Gln34]PP] |  |  |  |  |  | 6.1 | 9.2 | 130
APLEPVYPGDNATPEQMAQYAADLRRYINLLTRQRY-NH2 [[Leu30,Gln34]PP] |  |  |  |  |  | 8.6 | 4.5 | 102
